# The RNAGym collection of RNA variant scans (doi:10.1073/pnas.2313332121)
# B1: TPR t1 (parent)
# chain: GACCAAUCUGCCCUCAGAGCUCGAGAACAUCUUCGGAUGCAGAGGAGGCAGGCUUCGGUGGCGCGAUAGCGCCAACGUCCUCAACCUCCAAUGCAUCCCACCACAUGAUGAUGCCUGAAGAGCCUUGGUUUUUUG
# Variants of: B1
# Assay: polymerase ribozyme fitness, log enrichment relative to wild type (log ratio); higher = more active; in vitro selection for triplet polymerase activity
# How it was run: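 PCR was used to build mutant libraries for each subunit of a heterodimeric triplet polymerase ribozyme, which were then transcribed. A single in vitro selection round, in triplicate, used a frozen incubation at −7 °C and recovered extended constructs by gel excision, streptavidin beads and RT-PCR. Fitness is the logarithm of genotype enrichment relative to wild-type enrichment, averaged over replicates with inverse-variance weights. The logarithm is base 2, and after Illumina sequencing only genotypes with ≥10 input reads and ≥1 read per output were kept.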
row,Variant,polymerase ribozyme fitness (log ratio)
1,U59A C72U A83C,-0.884
2,G57C C104U,0.227
3,C56U G120C,0.793
4,C56U G120U,0.743
5,C56U G120A,0.719
6,G57U C73G,-0.228
7,G58A U125A,-0.652
8,G57U G69C,-0.847
9,G57U G69A,-2.73
10,U59G C86U,0.709
11,U59C C62U C85A C115U,-2.93
12,G57U G117A G135U,-2.73
13,U59A C62U C82U G120A,0.193
14,G57C U112G,0.543
15,U59A C89U,-0.0389
16,G57U A84U G110A,-2.32
17,G60A,-0.00692
18,C56U U96C C114G,-3.1
19,G57U G117U,-2.86
20,U59A U116G G120C,-0.387
21,G58C C85U G120A,0.436

row,Variant,polymerase ribozyme fitness (log ratio)
1,G57A G58A U81A U106C,-2.54
2,U59G U112G G113A G120U,-4.31
3,U59A G60U C89G C97U,-2.98
4,G58A G60A A68G A100U C115A,-5.02
5,G57U C62G,-1.62
6,G58U A111C,-0.00673
7,G57C C89A A95G A111U A121U,-2.97
8,G57A G71U C124A G135A,0.736
9,G58C C72U C123G G128A,0.86
10,C56U U106G U112G A118C U133G,-0.872
11,C56U U126A,-1.39
12,C56U U126G,-1.91
13,C56U U116C,-0.494
14,G58C C62U,-1.01
15,G57C G93A,-0.552
16,U59A C86G C98U,-3.38
17,U59A C89A C101U G113U,-3.68
18,U59A C79U G110A A119C,-3.05
19,G57A U81C G93C G120A,-1.39
20,G57C U92G G117A,-3.55
21,U59G C76U G110U,-2.81

row,Variant,polymerase ribozyme fitness (log ratio)
1,G58C G61U C94A U116A,-3.54
2,G57U C82G,0.0757
3,G57A C98G U112A,-6.12
4,G57U G60C A84U C99A C101U G117U,-6.95
5,U59C G61C,-3.23
6,G57C G60A G117U,-2.47
7,U59C C123U,1.16
8,U59G U78A,0.3
9,U59A C70A C102A,-5.39
10,U59G G113A,-1.96
11,G57U A66C,-1.65
12,G57U A68G,-3.27
13,G58U C124A,1.26
14,G57C C89U G120C,-1.28
15,G58A C72U,0.786
16,G58C A95G U109A,-5.73
17,C56U U129G,-0.409
18,G58U C64U U78C U96C C124U U126C U133G,-0.65
19,U59A U125A,-0.568
20,U59A U125G,-0.415
21,G58C C97A A103U G120C,-6.84

row,Variant,polymerase ribozyme fitness (log ratio)
1,G57U G113U,-1.79
2,G57A U130A,-1.13
3,G58C U59G C70A C86G,-2.75
4,G57C G61C C88G G113U U116C A121U,-6.29
5,U59A A111C G120A,-0.645
6,C56U U87A C123G,1.81
7,G57U G60U C123U,0.317
8,G57U A121U,1.92
9,U59G A68G,-3.01
10,U59C C94A,-1.01
11,U59A C80U,-0.689
12,G57A G69U C97A U132C,-3.61
13,G58C,0.031
14,G58U,-0.329
15,G58A,0.0445
16,G57C C94A C97U A121U G122U,-1.21
17,G57A G61A,-0.154
18,U59C C72G A118C,-3.55
19,G58C G71U C82G C88G,-2.93
20,G58A C70G G120A U129A,-3.9
21,G57C G69A,-3
